Experimental findings from publication doi:10.1101/2024.06.03.594717 are described below.

The target in experiment [1] is Tag-free FBXO22-SKP1 complex (human) (UniProt Q8NEZ5). The experiment is described as follows: SEC-MALS; Superdex 200 10/300 GL, 20 mM Tris-HCl pH 8.0, 150 mM NaCl, 0.25 mM TCEP, room temperature; tag-free FBXO22-SKP1, His-BACH1-BTB and their mixture. (SEC sorts molecules by how far they enter the pores of the column.)
The next experiment addresses GST-FBXO22-SKP1 (human) (UniProt Q8NEZ5). Nature of the experiment: BLI; Octet Red 96, anti-GST probes loaded with 200 nM GST-FBXO22-SKP1, BACH1-BTB as analyte, 30°C; 25 mM HEPES pH 7.4, 100 mM NaCl, 1 mM TCEP, 0.1% Tween-20, 0.05 mg/mL BSA; Kd from steady-state equilibrium. A general note: Biolayer interferometry detects binding as a change in optical thickness at a sensor tip.

Sequence of GST-FBXO22-SKP1 (human) (Q8NEZ5 whole entry, chain 1 of 2): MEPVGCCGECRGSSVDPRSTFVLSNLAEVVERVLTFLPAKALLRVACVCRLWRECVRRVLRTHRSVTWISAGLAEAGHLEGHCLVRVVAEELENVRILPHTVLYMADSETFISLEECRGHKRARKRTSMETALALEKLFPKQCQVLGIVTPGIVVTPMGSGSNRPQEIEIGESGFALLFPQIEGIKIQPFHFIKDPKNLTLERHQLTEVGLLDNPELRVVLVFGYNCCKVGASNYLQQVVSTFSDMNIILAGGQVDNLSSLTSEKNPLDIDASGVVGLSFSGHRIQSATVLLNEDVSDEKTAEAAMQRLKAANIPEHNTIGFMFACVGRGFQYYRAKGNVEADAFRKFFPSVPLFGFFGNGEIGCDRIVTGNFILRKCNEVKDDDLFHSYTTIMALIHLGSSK
Sequence of GST-FBXO22-SKP1 (human) (P63208 whole entry, chain 2 of 2, further chain): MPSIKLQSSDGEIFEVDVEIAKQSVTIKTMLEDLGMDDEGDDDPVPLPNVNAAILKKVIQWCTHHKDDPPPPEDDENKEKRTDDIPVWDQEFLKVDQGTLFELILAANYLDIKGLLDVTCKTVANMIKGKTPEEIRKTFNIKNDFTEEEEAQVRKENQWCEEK
Sequence of Tag-free FBXO22-SKP1 complex (human) (Q8NEZ5 whole entry, chain 1 of 2): as the sequence (Q8NEZ5 whole entry, chain 1 of 2) above
Sequence of Tag-free FBXO22-SKP1 complex (human) (P63208 whole entry, chain 2 of 2, further chain): as the sequence (P63208 whole entry, chain 2 of 2, further chain) above
Sequence of His-BACH1-BTB (O14867 7-128): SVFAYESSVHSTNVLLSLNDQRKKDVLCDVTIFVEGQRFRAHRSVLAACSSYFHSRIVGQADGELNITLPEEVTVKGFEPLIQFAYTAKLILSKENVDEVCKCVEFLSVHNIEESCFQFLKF
Sequence of BACH1 BTB domain (O14867 7-128): as above

Take “His-BACH1-BTB (from UniProt O14867 7-128) (domain or fragment)”: the stoichiometry N (FBXO22-SKP1 per BACH1 BTB dimer) in experiment [1] amounted to 1. For “BACH1 BTB domain (from UniProt O14867 7-128) (domain or fragment)”, the Kd (commonly the concentration at which binding is half-saturated) in the experiment with GST-FBXO22-SKP1 (human) was determined as 90 nM.
